# Test: Stability of diluted alkaline phosphatase in the enzyme diluent
# Assay type: physicochemical
# Conditions: ≅100 molecules of alkaline phosphatase per ml of diluent, stored at 4° C.
# From the text: As is known to those skilled in the art, the stability of the enzyme is the most important factor in the detection of biological molecules. The present invention utilizes a unique diluent or buffer based upon the composition of human blood serum. The present diluent is a tris-buffer containing proteins, metal halides such as sodium chloride, potassium chloride, magnesium chloride, zinc chloride, and the like, alcohols or polyhydric alcohols and sodium azide. The pH of the buffer is between 7.5 to 8.5.
substance,measurement,value
alkaline phosphatase,stability of enzyme in diluent,stable at least for one week

# Source: patent US6767716B2, “Chemluminescent systems containing unsaturated 1,2-dioxetanes” (priority 2000, dated 2004)
